In the assay the target is T1, Programmed Cell Death Ligand 1 (PD-L1) (human, UniProt Q9NZQ7 19-290).
T1 construct: whole, on cells; Endogenous PD-L1 on cells or in fixed tissue sections; No recombinant PD-L1 was used; also called CD274
Put plainly: IHC on FFPE placenta, biotinylated peptide, streptavidin-HRP/DAB. The source says: To detect PD-L1 in FFPE tissues, manual IHC techniques were employed with a biotin-conjugated version of peptide RK-10-Cy5 and compared with Ventana PD-L1 (SP263) Rabbit monoclonal Primary Antibody stained on a Roche Benchmark Ultra autostainer. Seven PD-L1 expressing NSCLC patient tissues were obtained from the MU OneHealth tissue bank and de-identified according to IRB protocols. Paraffin-embedded patient tissue slides were baked overnight, then de-waxed and rehydrated according to standard protocols. Tissue sections were then subjected to antigen retrieval in EDTA at 95° C. for 20 minutes in EDTA […]. The solution is then cooled for an additional 20 minutes on the bench top prior to buffer rinse. Tissues were then incubated with 15 biotinylated peptide for 2 hours in a humid chamber at RT. After 2 hours, slides were washed with buffer and treated with PIERCE™ High Sensitivity Streptavidin-HRP (1:200 dilution) (Sigma) for 30 minutes at RT in a humid chamber. Once this was complete, slides were again washed in buffer then treated with DAB (3,3′-Diaminobenzidine; Sigma) for 10 minutes. Slides were again washed in buffer, then dehydrated using graded alcohol and xylene and counterstained with hematoxylin. Slides were then imaged using bright-field microscopy on a Leica DM5500. […]

Here are results for one molecule from patent US20200325231A1 (CURATORS OF THE UNIVERSITY OF MISSOURI, published 2020).

Ends that are not written are not given here. * marks the point of attachment. Biotin = O=C1N[C@H]2[C@H](CS[C@H]2CCCCC(=O)*)N1

T1 sequence (Q9NZQ7 19-290): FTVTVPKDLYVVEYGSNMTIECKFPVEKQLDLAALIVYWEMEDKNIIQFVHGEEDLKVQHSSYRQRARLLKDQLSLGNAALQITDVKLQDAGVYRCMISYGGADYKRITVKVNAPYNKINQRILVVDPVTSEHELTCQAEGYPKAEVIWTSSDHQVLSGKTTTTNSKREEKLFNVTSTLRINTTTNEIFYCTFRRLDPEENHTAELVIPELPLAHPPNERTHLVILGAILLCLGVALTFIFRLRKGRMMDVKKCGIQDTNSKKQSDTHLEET

For Biotin-GSGSGSFVLNWYRMSPSNQTDKLAA (also called Mock peptide RK-11-Biotin) [RK-11-Biotin (biotinylated mock peptide)], the binding result was “binds”.
